Assay results: publication PMC3443672, “The solution structure of the prototype foamy virus RNase H domain indicates an important role of the basic loop in substrate binding”

Target: PFV RNase H wt (prototype foamy virus, UniProt P14350 591-751)
Assay: fluorescence anisotropy; 25 nM substrate; Fluorescence anisotropy: 25 nM substrate, excitation 652 nm, emission 673 nm; buffer, salt, pH and temperature not given (as described in ref 5)
Details: protein: recombinant; label: DY647 at 5' end of DNA strand; blunt

B1: 10/10-mer RNA/5'-DY647-DNA (DNA:RNA)
RNA: GCGACACCUG
DNA: CAGGTGTCGC
Kd: 23 ± 3 µM
